T1: human MD-2 (myeloid differentiation factor 2) (human), Q9Y6Y9
T1 chain: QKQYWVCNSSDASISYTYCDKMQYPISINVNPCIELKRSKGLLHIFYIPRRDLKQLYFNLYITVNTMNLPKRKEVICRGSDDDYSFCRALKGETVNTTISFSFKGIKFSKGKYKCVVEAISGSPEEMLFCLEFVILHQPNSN


What was measured:
[1] = molecular target: the molecule itself; experiment: non-reducing SDS-PAGE with anti-His Western blot; culture supernatants of GS115 and KM71H cultures, induced without or with culture additives
[2] = molecular target: T1, human MD-2 (myeloid differentiation …); experiment: SEC; nickel-purified protein on HiLoad 16/60 Superdex 200 in 50 mM sodium acetate, pH 5.0; without additive, or with the anti-aggregation additive (0.2 M MgSO4 for hMD-2) in culture medium and buffers; settings: remark: other sources report otherwise

percent monomeric (with 0.2 M MgSO4) [2] [%] | Binder | binding result [1]
– | human MD-1 (myeloid differentiation factor 1) (natural protein, UniProt O95711 21-162, looked up, A TEV cleavage site lies between the His6-tag and the protein; Secreted by the S. cerevisiae alpha factor prepro peptide; Glycoprotein; also called hMD-1; source: Pichia pastoris GS115 or KM71H (pPIC9K), secreted; not shown: His6, N-terminal, kept) GGGGKAWPTHVVCSDSGLEVLYQSCDPLQDFGFSVEKCSKQLKSNINIRFGIILREDIKELFLDLALMSQGSSVLNFSYPICEAALPKFSFCGRRKGEQIYYAGPVNNPEFTIPQGEYQVLLELYTEKRSTVACANATIMCS | binds
15 | human MD-2 (myeloid differentiation factor 2), Q9Y6Y9 19-160 (natural protein) QKQYWVCNSSDASISYTYCDKMQYPISINVNPCIELKRSKGLLHIFYIPRRDLKQLYFNLYITVNTMNLPKRKEVICRGSDDDYSFCRALKGETVNTTISFSFKGIKFSKGKYKCVVEAISGSPEEMLFCLEFVILHQPNSN | –
